# Test results reported in patent US20140274782A1, “AFFINITY REAGENTS AND METHODS FOR DETECTION, PURIFICATION, AND PROTEOMIC ANALYSIS OF METHYLATED PROTEINS” (The Board of Trustees of the Leland Stanford Junior …, priority 2013, published 2014).
# B1: SRP14 (protein, UniProt P37108 2-136, looked up)
# Signal recognition particle …: VLLESEQFLTELTRLFQKCRTSGSVYITLKKYDGRTKPIPKKGTVEGFEPADNKCLLRATDGKKKISTVVSSKEVNKFQMAYSNLLRANMDGLKKRDKKNKTKKTKAAAAAAAAAPAAAATAPTTAATTAATAAQ
# B2: PRDX2 (protein, UniProt P32119 2-198, looked up)
# Peroxiredoxin-2: ASGNARIGKPAPDFKATAVVDGAFKEVKLSDYKGKYVVLFFYPLDFTFVCPTEIIAFSNRAEDFRKLGCEVLGVSVDSQFTHLAWINTPRKEGGLGPLNIPLLADVTRRLSEDYGVLKTDEGIAYRGLFIIDGKGVLRQITVNDLPVGRSVDEALRLVQAFQYTDEHGEVCPAGWKPGSDTIKPNVDDSKEYFSKHN
# B3: LSM12 (protein, UniProt Q3MHD2 2-195, looked up)
# Protein LSM12: AAPPGEYFSVGSQVSCRTCQEQRLQGEVVAFDYQSKMLALKCPSSSGKPNHADILLINLQYVSEVEIINDRTETPPPLASLNVSKLASKARTEKEEKLSQAYAISAGVSLEGQQLFQTIHKTIKDCKWQEKNIVVMEEVVITPPYQVENCKGKEGSALSHVRKIVEKHFRDVESQKILQRSQAQQPQKEAALSS
# B4: SF3B3 (protein, UniProt Q15393 1-1217, looked up)
# Splicing factor 3B subunit 3: MFLYNLTLQRATGISFAIHGNFSGTKQQEIVVSRGKILELLRPDPNTGKVHTLLTVEVFGVIRSLMAFRLTGGTKDYIVVGSDSGRIVILEYQPSKNMFEKIHQETFGKSGCRRIVPGQFLAVDPKGRAVMISAIEKQKLVYILNRDAAARLTISSPLEAHKANTLVYHVVGVDVGFENPMFACLEMDYEEADNDPTGEAAANTQQTLTFYELDLGLNHVVRKYSEPLEEHGNFLITVPGGSDGPSGVLICSENYITYKNFGDQPDIRCPIPRRRNDLDDPERGMIFVCSATHKTKSMFFFLAQTEQGDIFKITLETDEDMVTEIRLKYFDTVPVAAAMCVLKTGFLFVASEFGNHYLYQIAHLGDDDEEPEFSSAMPLEEGDTFFFQPRPLKNLVLVDELDSLSPILFCQIADLANEDTPQLYVACGRGPRSSLRVLRHGLEVSEMAVSELPGNPNAVWTVRRHIEDEFDAYIIVSFVNATLVLSIGETVEEVTDSGFLGTTPTLSCSLLGDDALVQVYPDGIRHIRADKRVNEWKTPGKKTIVKCAVNQRQVVIALTGGELVYFEMDPSGQLNEYTERKEMSADVVCMSLANVPPGEQRSRFLAVGLVDNTVRIISLDPSDCLQPLSMQALPAQPESLCIVEMGGTEKQDELGERGSIGFLYLNIGLQNGVLLRTVLDPVTGDLSDTRTRYLGSRPVKLFRVRMQGQEAVLAMSSRSWLSYSYQSRFHLTPLSYETLEFASGFASEQCPEGIVAISTNTLRILALEKLGAVFNQVAFPLQYTPRKFVIHPESNNLIIIETDHNAYTEATKAQRKQQMAEEMVEAAGEDERELAAEMAAAFLNENLPESIFGAPKAGNGQWASVIRVMNPIQGNTLDLVQLEQNEAAFSVAVCRFSNTGEDWYVLVGVAKDLILNPRSVAGGFVYTYKLVNNGEKLEFLHKTPVEEVPAAIAPFQGRVLIGVGKLLRVYDLGKKKLLRKCENKHIANYISGIQTIGHRVIVSDVQESFIWVRYKRNENQLIIFADDTYPRWVTTASLLDYDTVAGADKFGNICVVRLPPNTNDEVDEDPTGNKALWDRGLLNGASQKAEVIMNYHVGETVLSLQKTTLIPGGSESLVYTTLSGGIGILVPFTSHEDHDFFQHVEMHLRSEHPPLCGRDHLSFRSYYFPVKNVIDGDLCEQFNSMEPNKQKNVSEELDRTPPEVSKKLEDIRTRYAF
# B5: MCM3 (protein, UniProt P25205 2-808, looked up)
# DNA replication licensing …: AGTVVLDDVELREAQRDYLDFLDDEEDQGIYQSKVRELISDNQYRLIVNVNDLRRKNEKRANRLLNNAFEELVAFQRALKDFVASIDATYAKQYEEFYVGLEGSFGSKHVSPRTLTSCFLSCVVCVEGIVTKCSLVRPKVVRSVHYCPATKKTIERRYSDLTTLVAFPSSSVYPTKDEENNPLETEYGLSVYKDHQTITIQEMPEKAPAGQLPRSVDVILDDDLVDKAKPGDRVQVVGTYRCLPGKKGGYTSGTFRTVLIACNVKQMSKDAQPSFSAEDIAKIKKFSKTRSKDIFDQLAKSLAPSIHGHDYVKKAILCLLLGGVERDLENGSHIRGDINILLIGDPSVAKSQLLRYVLCTAPRAIPTTGRGSSGVGLTAAVTTDQETGERRLEAGAMVLADRGVVCIDEFDKMSDMDRTAIHEVMEQGRVTIAKAGIHARLNARCSVLAAANPVYGRYDQYKTPMENIGLQDSLLSRFDLLFIMLDQMDPEQDREISDHVLRMHRYRAPGEQDGDAMPLGSAVDILATDDPNFSQEDQQDTQIYEKHDNLLHGTKKKKEKMVSAAFMKKYIHVAKIIKPVLTQESATYIAEEYSRLRSQDSMSSDTARTSPVTARTLETLIRLATAHAKARMSKTVDLQDAEEAVELVQYAYFKKVLEKEKKRKKRSEDESETEDEEEKSQEDQEQKRKRRKTRQPDAKDGDSYDPYDFSDTEEEMPQVHTPKTADSQETKESQKVELSESRLKAFKVALLDVFREAHAQSIGMNRLTESINRDSEEPFSSVEIQAALSKMQDDNQVMVSEGIIFLI
# Tested on: 3×MBT domain of L3MBTL1
# Assay: Triple SILAC pull-down, 3xMBT/3xMBTD355N ratio (cytoplasmic, nuclear and chromatin fractions of 293T cells);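 note: proteins quantified with MaxQuant, requiring at least two unique peptides and quantification in both label directions, normalized to the mean of proteins from a digested loading control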
# Format: binding, human
# Settings: SILAC ratio, pull-down 3xMBT vs 3xMBTD355N; experiment with UNC0638 in heavy SILAC media
row,Molecule,3xMBT/D355N UNC Heavy [log base 2]
1,B1,2.23
2,B2,2.19
3,B3,2.07
4,B4,2.48
5,B5,2.59

# Same assay, conditions: SILAC ratio, pull-down 3xMBT vs 3xMBTD355N; experiment with UNC0638 in light SILAC media
row,Molecule,3xMBT/D355N UNC Light [log base 2]
1,B1,2.96
2,B2,4.01
3,B3,3.81
4,B4,2.08
5,B5,2.49

# Target: T1, G9a and GLP (Homo sapiens, UniProt Q96KQ7+Q9H9B1)
# T1 sequence (Q96KQ7 2-1210 limits assumed): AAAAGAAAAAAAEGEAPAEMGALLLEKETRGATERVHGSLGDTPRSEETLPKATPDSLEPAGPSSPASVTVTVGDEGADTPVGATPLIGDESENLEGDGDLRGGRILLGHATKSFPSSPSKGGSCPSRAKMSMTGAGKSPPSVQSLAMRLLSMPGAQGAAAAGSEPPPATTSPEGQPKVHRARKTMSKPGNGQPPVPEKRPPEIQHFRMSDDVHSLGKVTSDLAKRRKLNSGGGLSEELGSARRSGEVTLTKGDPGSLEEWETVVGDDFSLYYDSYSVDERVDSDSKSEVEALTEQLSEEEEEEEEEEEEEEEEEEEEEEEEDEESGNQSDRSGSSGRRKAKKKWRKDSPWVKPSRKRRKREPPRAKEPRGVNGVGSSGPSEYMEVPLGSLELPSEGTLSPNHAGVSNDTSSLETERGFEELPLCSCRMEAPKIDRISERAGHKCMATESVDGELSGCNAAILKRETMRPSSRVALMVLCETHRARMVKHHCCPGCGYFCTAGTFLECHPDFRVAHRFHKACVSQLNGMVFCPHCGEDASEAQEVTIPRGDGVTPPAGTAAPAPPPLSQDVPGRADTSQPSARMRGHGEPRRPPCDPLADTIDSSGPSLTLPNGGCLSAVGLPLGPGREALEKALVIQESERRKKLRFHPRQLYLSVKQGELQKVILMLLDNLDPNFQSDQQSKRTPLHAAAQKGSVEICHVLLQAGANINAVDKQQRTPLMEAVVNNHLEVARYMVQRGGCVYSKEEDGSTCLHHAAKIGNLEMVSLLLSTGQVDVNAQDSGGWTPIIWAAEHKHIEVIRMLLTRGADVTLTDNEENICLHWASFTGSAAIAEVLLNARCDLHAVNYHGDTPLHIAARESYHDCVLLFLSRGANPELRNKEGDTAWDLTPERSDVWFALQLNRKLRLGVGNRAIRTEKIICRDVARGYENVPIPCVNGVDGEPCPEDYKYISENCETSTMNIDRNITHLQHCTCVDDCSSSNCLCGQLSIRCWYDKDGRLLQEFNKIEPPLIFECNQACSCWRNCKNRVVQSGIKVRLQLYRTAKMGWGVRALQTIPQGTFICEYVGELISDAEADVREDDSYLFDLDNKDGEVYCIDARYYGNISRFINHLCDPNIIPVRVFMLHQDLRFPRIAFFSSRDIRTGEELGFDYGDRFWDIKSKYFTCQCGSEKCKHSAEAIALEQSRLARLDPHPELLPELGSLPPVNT
# T1 sequence (Q9H9B1 2-1298 limits assumed): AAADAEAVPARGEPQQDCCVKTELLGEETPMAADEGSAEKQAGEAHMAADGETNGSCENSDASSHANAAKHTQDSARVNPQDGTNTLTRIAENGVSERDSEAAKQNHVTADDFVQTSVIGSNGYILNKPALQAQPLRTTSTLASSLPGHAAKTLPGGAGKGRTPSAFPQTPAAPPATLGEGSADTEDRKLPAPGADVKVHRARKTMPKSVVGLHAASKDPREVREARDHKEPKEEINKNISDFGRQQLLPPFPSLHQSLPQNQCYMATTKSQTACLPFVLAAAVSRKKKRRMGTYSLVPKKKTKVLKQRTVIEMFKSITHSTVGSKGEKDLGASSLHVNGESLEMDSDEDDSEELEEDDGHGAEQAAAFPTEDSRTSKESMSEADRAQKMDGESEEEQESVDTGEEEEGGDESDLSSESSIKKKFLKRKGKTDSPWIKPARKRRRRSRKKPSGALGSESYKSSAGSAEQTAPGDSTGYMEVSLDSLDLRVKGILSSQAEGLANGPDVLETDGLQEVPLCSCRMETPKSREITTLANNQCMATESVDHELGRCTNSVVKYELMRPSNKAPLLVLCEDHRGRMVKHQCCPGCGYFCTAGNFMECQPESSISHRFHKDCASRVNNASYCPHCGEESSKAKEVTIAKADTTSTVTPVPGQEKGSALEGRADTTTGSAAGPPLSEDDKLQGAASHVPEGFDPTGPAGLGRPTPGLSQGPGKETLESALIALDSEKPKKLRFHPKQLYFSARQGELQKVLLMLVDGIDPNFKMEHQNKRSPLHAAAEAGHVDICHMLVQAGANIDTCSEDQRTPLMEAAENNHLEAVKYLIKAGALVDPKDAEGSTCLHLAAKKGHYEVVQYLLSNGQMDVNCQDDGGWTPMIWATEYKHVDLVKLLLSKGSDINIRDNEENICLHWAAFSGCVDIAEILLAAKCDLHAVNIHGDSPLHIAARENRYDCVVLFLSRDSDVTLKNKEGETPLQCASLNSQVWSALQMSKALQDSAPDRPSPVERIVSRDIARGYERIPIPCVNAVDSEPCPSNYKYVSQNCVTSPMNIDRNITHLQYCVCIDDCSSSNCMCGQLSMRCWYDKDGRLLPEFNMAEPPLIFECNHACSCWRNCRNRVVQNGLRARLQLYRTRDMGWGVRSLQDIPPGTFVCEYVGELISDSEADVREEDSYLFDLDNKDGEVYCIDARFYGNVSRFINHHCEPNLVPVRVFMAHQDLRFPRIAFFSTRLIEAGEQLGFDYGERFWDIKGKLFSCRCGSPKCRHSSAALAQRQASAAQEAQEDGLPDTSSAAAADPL
# Assay: Triple SILAC pull-down after UNC0638 treatment of 293T cells, DMSO/UNC0638 ratio of protein captured by 3×MBT;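 note: mass spectrometry (Q-Exactive) SILAC quantitation, DMSO/UNC0638 ratio computed after subtracting 3×MBTD355N mutant pull-down background, only proteins with at least twofold 3×MBT over mutant signal considered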
# Format: cell-based
# Set-up: cells were treated for 24 hours with UNC0638 at 2.5 μM or DMSO vehicle control; endogenous in cells; host or cells: HEK 293T
# Settings: SILAC ratio DMSO/UNC0638 of protein pulled down with 3xMBT; UNC0638 in heavy SILAC media
row,Molecule,Relative to UNC0638 UNC Heavy [log base 2]
1,B1,0.30
2,B2,0.43
3,B3,0.03
4,B4,0.06
5,B5,0.28

# Same assay, conditions: SILAC ratio DMSO/UNC0638 of protein pulled down with 3xMBT; UNC0638 in light SILAC media
row,Molecule,Relative to UNC0638 UNC Light [log base 2]
1,B1,0.07
2,B2,1.96
3,B3,0.34
4,B4,0.31
5,B5,0.09

# Same assay, conditions: average of UNC Light and UNC Heavy experiments
row,Molecule,Relative to UNC0638 Average [log base 2]
1,B1,0.19
2,B2,1.19
3,B3,0.18
4,B4,0.18
5,B5,0.18

# Same assay, conditions: reduced association with 3xMBT after UNC0638 treatment
row,Molecule,Candidate G9a/GLP target
1,B2,✓
